Results on 38 sequences are retold here after the supplement of paper PMC10724198.

Data set [1] relates to Saccharomyces cerevisiae. In words: protein stability index of tFT-peptide fusion in wild type (PSI (0-1 scale)); higher = more stable (slower turnover). The note with it: genetic background: wild type. As to the method: (§1)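 MPS profiling in S. cerevisiae of two library types built from selected 12-aa C-degron peptides (IN1, IN2, LN1, LN3, VN2, R1-R5, W1-W3, Atg1 and Rpa12 C-termini): saturation mutagenesis libraries and C-terminal +1 capping libraries (13 aa). Each peptide is fused to the C-terminus of a sfGFP-mCherry timer, after a GGGS linker. Cells are FACS-sorted into 8 mCherry/sfGFP bins and sequenced. PSI runs from 0 (unstable) to 1 (stable), measured once in wild type and in the das1Δ or doa10Δ background.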

The subject of data set [2] is Saccharomyces cerevisiae. In words: protein stability index of tFT-peptide fusion in deletion strain of DAS1 (PSI (0-1 scale)); higher = more stable (slower turnover). As to the method: as §1
Data set [3] has as its system Saccharomyces cerevisiae. In words: protein stability index of tFT-peptide fusion (C-terminal peptide) (PSI (0-1 scale)); higher = more stable (slower turnover). Conditions: temperature: 30 C. As to the method: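 MPS profiling in S. cerevisiae of the yeast C-terminome library: the last 12 aa of each annotated ORF are fused to the C-terminus of a sfGFP-mCherry timer, after a GGGS linker. Cells are FACS-sorted into 8 mCherry/sfGFP bins and deep-sequenced. PSI runs from 0 (unstable) to 1 (stable); wild type and das1Δ backgrounds, two technical replicates each.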

Setting [4] is: genetic background: das1 deletion.

± gives the standard deviation of the averaged measurements.
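Throughout, for protein stability index of tFT-peptide fusion in deletion strain of DAS1: PSI is a weighted mean of each variant's read distribution over the sorted stability bins, computed only for variants having over 10 reads in total.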
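Throughout, for protein stability index of tFT-peptide fusion in wild type: PSI derived as read-weighted mean over the 8 sorting bins, only variants exceeding 10 total reads kept, mCherry placed adjacent to the peptide and sfGFP distal.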

For the sequence CTSCHYKFRTNN, the protein stability index in data set [1] was found to be 0.26; in data set [2], 0.64.

In the case of CVVYLSCVACIN, the protein stability index in data set [1] worked out at 0.0137; in data set [2], 0.0323.

Take DRWRVGLWRGAS: the protein stability index in data set [1] came out at 0.413; in data set [2] it was 0.657.

For DTSCGYKFRTNN, the protein stability index in data set [1] worked out at 0.241; in data set [2], 0.68.

Consider FAMRWTFRYWVN, for which the protein stability index was found to be 0.0656 in data set [1] and 0.476 in data set [2].

In the case of FKILRQKMNHQN, the results for the protein stability index in data set [1] and in data set [2] were 0.168 and 0.672, respectively.

Take FSDRWTFRYWVN: the protein stability index in data set [1] worked out at 0.095; in data set [2] it was 0.605.

For the sequence FSMGWTFRYWVN, the protein stability index in data set [1] came out at 0.0807; in data set [2], 0.575.

VPGNPGVVFQNI [CDC60 C-terminal 12 aa]: the figures for the protein stability index in data set [3] (setting [4]) and in data set [3] (genetic background: wild type) were 0.708 ± 0.018 and 0.75 ± 0.082, respectively.

In the case of VQSTDIAAMQKL [EFB1 C-terminal 12 aa], the protein stability index was determined as 0.721 ± 0.014 in data set [3] (setting [4]) and 0.683 ± 0.035 in data set [3] (genetic background: wild type).

For the sequence VRKLSFHVYEDE [ACM1 C-terminal 12 aa], the protein stability index in data set [3] (setting [4]) is 0.6908 ± 0.001; in data set [3] (genetic background: wild type), 0.658 ± 0.0079.

Take VSKMDCDPLTVA [NIF3 C-terminal 12 aa]: the protein stability index in data set [3] (setting [4]) is 0.678 ± 0.027; in data set [3] (genetic background: wild type) it was 0.676 ± 0.025.

Take “VTFLVFANLRLW [YBR223W-A C-terminal 12 aa]”: the protein stability index in data set [3] (setting [4]) worked out at 0.566 ± 0.013; in data set [3] (genetic background: wild type), 0.575 ± 0.027.

Turning to VVCFVSYQKLSS [OPI9 C-terminal 12 aa], the protein stability index in data set [3] (setting [4]) turned out to be 0.635 ± 0.011; in data set [3] (genetic background: wild type) it was 0.168 ± 0.026.

Regarding VVEALRDAVGDV [NBP35 C-terminal 12 aa], the protein stability index in data set [3] (setting [4]) turned out to be 0.706 ± 0.014; in data set [3] (genetic background: wild type) it was 0.696 ± 0.02.

For VVVVPSVVETRK [SSO2 C-terminal 12 aa], the results for the protein stability index in data set [3] (setting [4]) and in data set [3] (genetic background: wild type) were 0.681 ± 0.031 and 0.668 ± 0.026, respectively.

VWADILNKLGKD [ADK1 C-terminal 12 aa]: the protein stability index in data set [3] (setting [4]) worked out at 0.704 ± 0.013; in data set [3] (genetic background: wild type) it was 0.719 ± 0.025.

As to VYALSIKRSKLT [EPT1 C-terminal 12 aa], the protein stability index turned out to be 0.6803 ± 0.0053 in data set [3] (setting [4]) and 0.208 ± 0.0051 in data set [3] (genetic background: wild type).

With VYELVDAEALFS [YDR131C C-terminal 12 aa], the values for the protein stability index in data set [3] (setting [4]) and in data set [3] (genetic background: wild type) were 0.745 ± 0.02 and 0.682 ± 0.012, respectively.

Turning to WAVGGVELTTDI [GCN1 C-terminal 12 aa], the values for the protein stability index in data set [3] (setting [4]) and in data set [3] (genetic background: wild type) were 0.76 ± 0.021 and 0.705 ± 0.026, respectively.

Regarding WDGNLFVWNGLG [PEX7 C-terminal 12 aa], the protein stability index in data set [3] (setting [4]) came out at 0.7335 ± 0.0029; in data set [3] (genetic background: wild type), 0.4319 ± 0.0013.

As for WKKDNKIQVVKN [GIM4 C-terminal 12 aa], the protein stability index in data set [3] (setting [4]) was determined as 0.725 ± 0.026; in data set [3] (genetic background: wild type) it was 0.663 ± 0.019.

WPRVASNSGVVV [RPL23A C-terminal 12 aa]: the protein stability index was 0.7042 ± 0.0044 in data set [3] (setting [4]) and 0.679 ± 0.018 in data set [3] (genetic background: wild type).

Turning to WTALVVNILGRF [CWH41 C-terminal 12 aa], the protein stability index in data set [3] (setting [4]) came to 0.634 ± 0.012; in data set [3] (genetic background: wild type) it was 0.634 ± 0.011.

Consider YAELAERKKQEN [COX9 C-terminal 12 aa], for which the results for the protein stability index in data set [3] (setting [4]) and in data set [3] (genetic background: wild type) were 0.6916 ± 0.0031 and 0.6914 ± 0.0022, respectively.

Consider YAGENFHHGDKL [ENO2 C-terminal 12 aa], for which the protein stability index is 0.6954 ± 0.003 in data set [3] (setting [4]) and 0.749 ± 0.034 in data set [3] (genetic background: wild type).

With YCIYQILILVKH [YCL065W C-terminal 12 aa], the figures for the protein stability index in data set [3] (setting [4]) and in data set [3] (genetic background: wild type) were 0.149 ± 0.019 and 0.171 ± 0.013, respectively.

Take YDEDEGSDYDFI [SUP45 C-terminal 12 aa]: the figures for the protein stability index in data set [3] (setting [4]) and in data set [3] (genetic background: wild type) were 0.6992 ± 0.0034 and 0.684 ± 0.012, respectively.

YDENSKPKGTKE [FUN30 C-terminal 12 aa]: the values for the protein stability index in data set [3] (setting [4]) and in data set [3] (genetic background: wild type) were 0.6948 ± 0.0051 and 0.704 ± 0.016, respectively.

As to YEAKLSKRILRD [SCM3 C-terminal 12 aa], the protein stability index in data set [3] (setting [4]) worked out at 0.7215 ± 0.0071; in data set [3] (genetic background: wild type) it was 0.723 ± 0.0073.

Take YFVNNIIVRIQS [YKL118W C-terminal 12 aa]: the protein stability index in data set [3] (setting [4]) was determined as 0.559 ± 0.009; in data set [3] (genetic background: wild type), 0.329 ± 0.028.

Regarding YGVPDAELKIVG [DGA1 C-terminal 12 aa], the protein stability index in data set [3] (setting [4]) worked out at 0.719 ± 0.02; in data set [3] (genetic background: wild type), 0.672 ± 0.019.

Turning to YHLFYMKLQKKI [SPE2 C-terminal 12 aa], the results for the protein stability index in data set [3] (setting [4]) and in data set [3] (genetic background: wild type) were 0.6977 ± 0.0069 and 0.187 ± 0.013, respectively.

Regarding YKELKDFIFAEK [GUK1 C-terminal 12 aa], the figures for the protein stability index in data set [3] (setting [4]) and in data set [3] (genetic background: wild type) were 0.692 ± 0.0077 and 0.727 ± 0.035, respectively.

On to YKELVKKIESKN [CIT1 C-terminal 12 aa], for which the protein stability index in data set [3] (setting [4]) is 0.7257 ± 0.0054; in data set [3] (genetic background: wild type) it was 0.7078 ± 0.0025.

On to YNKLKGAGHKKE [PAI3 C-terminal 12 aa], for which the protein stability index is 0.6777 ± 0.0045 in data set [3] (setting [4]) and 0.645 ± 0.0076 in data set [3] (genetic background: wild type).

In the case of YNLKNDILTNLE [SWI1 C-terminal 12 aa], the protein stability index in data set [3] (setting [4]) amounted to 0.73 ± 0.021; in data set [3] (genetic background: wild type), 0.651 ± 0.044.

As to YVIVFFVYDSLL [YOL046C C-terminal 12 aa], the protein stability index in data set [3] (setting [4]) turned out to be 0.238 ± 0.0075; in data set [3] (genetic background: wild type), 0.283 ± 0.015.
